Experimental data as given in patent US20260176659A1, “IMPROVED METHOD FOR THE PRODUCTION OF NATURAL VANILLIN” (BASE SE, priority 2022, published 2026).

Assay: Bioconversion of eugenol to vanillin: one-pot concurrent cascade EUGO + alkene cleavage oxygenase (5 mM scale)
Format: biochemical
Details: for Reaction composition at 24 hours (%) 1a / Reaction composition at 24 hours (%) 2a / Reaction composition at 24 hours (%) 3a / Reaction composition at 24 hours (%) 5a / Conversion of 1a to 3a (%): 5 mM 1a; for Conversion of 1a to 3a (%): 24 h; for Reaction composition after 24 hours 1a (%) / Reaction composition after 24 hours 2a (%) / Reaction composition after 24 hours 3a (%) / Reaction composition after 24 hours 5a (%): Table 8a, CO-XX FD-CFE 1 mg/mL; for Reaction composition after 24 hours 1a (%) / Reaction composition after 24 hours 2a (%) / Reaction composition after 24 hours 3a (%) / Reaction composition after 24 hours 5a (%) / Product distribution after 24 hours 2a (%) / Product distribution after 24 hours 3a (%) / Product distribution after 24 hours 5a (%): eugenol 5 mM; for Product distribution after 24 hours 2a (%) / Product distribution after 24 hours 3a (%) / Product distribution after 24 hours 5a (%): Table 8b, CO-0X FD-CFE 1 mg/mL
Summary of the method: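 Cell-free extracts of EUGO (0.5 mg) and cleavage oxygenase (3 mg) were combined with catalase, 1 mM FeSO4 and 1 mM ascorbate in glycine-NaOH pH 9.0 (or Tris-HCl pH 8.0). The cascade ran with 5 mM eugenol (5% ethanol/DMSO cosolvent) at 30° C and 120 rpm overnight. Methanol-quenched samples were analysed by HPLC at 280/340 nm.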

[1] = EUGO 0 mg/mL, IECO fresh CFE 4 mg/mL, cosolvent DMSO 5% v/v
[2] = EUGO 0 mg/mL, IECO fresh CFE 4 mg/mL, cosolvent EtOH 5% v/v
[3] = EUGO FD-CFE 1 mg/mL (row prints 2, see doubts), IECO FD-CFE 4 mg/mL, pH 9.0, catalase 10 mg/mL
[4] = EUGO FD-CFE 1 mg/mL, IECO FD-CFE 4 mg/mL, pH 8.0, catalase 10 mg/mL
[5] = EUGO FD-CFE 1 mg/mL, IECO FD-CFE 6 mg/mL, pH 8.0, catalase 10 mg/mL
[6] = EUGO FD-CFE 1 mg/mL, IECO FD-CFE 6 mg/mL, pH 9.0, catalase 10 mg/mL
[7] = EUGO FD-CFE 2 mg/mL, IECO FD-CFE 4 mg/mL, pH 8.0, catalase 10 mg/mL
[8] = EUGO FD-CFE 2 mg/mL, IECO FD-CFE 4 mg/mL, pH 9.0, catalase 10 mg/mL
[9] = EUGO FD-CFE 2 mg/mL, IECO FD-CFE 6 mg/mL, pH 8.0, catalase 10 mg/mL
[10] = EUGO FD-CFE 2 mg/mL, IECO FD-CFE 6 mg/mL, pH 9.0, catalase 10 mg/mL
[11] = EUGO FD-CFE 5 mg/mL, IECO FD-CFE 20 mg/mL, pH 8.0, catalase 10 mg/mL
[12] = EUGO FD-CFE 5 mg/mL, IECO FD-CFE 20 mg/mL, pH 9.0, catalase 10 mg/mL
[13] = EUGO fresh CFE 1 mg/mL, IECO fresh CFE 4 mg/mL, cosolvent DMSO 5% v/v
[14] = EUGO fresh CFE 1 mg/mL, IECO fresh CFE 4 mg/mL, cosolvent EtOH 5% v/v
[15] = EUGO FD-CFE 1 mg/mL, catalase 10 mg/mL, pH 8.0
[16] = EUGO FD-CFE 1 mg/mL, catalase 10 mg/mL, pH 9.0
[17] = replicates of concurrent cascade with EUGO, pH 8.0, SD of four experiments
[18] = replicates of concurrent cascade with EUGO, pH 9.0, SD of four experiments

B1: IECO: isoeugenol cleavage oxygenase from Pseudomonas nitroreducens (GenBank: ACP17973), SEQ ID NO: 24 (protein, listed as Pseudomonas nitroreducens)
chain: MARLNRNDPQLVGTLLPTRIEADLFDLEVDGEIPKSINGTFYRNTPEPQVTPQKFHTFIDGDGMASAFHFEDGHVDFISRWVKTARFTAERLARKSLFGMYRNPYTDDTSVKGLDRTVANTSIISHHGKVLAVKEDGLPYELDPRTLETRGRFDYDGQVTSQTHTAHPKYDPETGDLLFFGSAAKGEATPDMAYYIVDKHGKVTHETWFEQPYGAFMHDFAITRNWSIFPIMPATNSLSRLKAKQPIYMWEPELGSYIGVLPRRGQGSQIRWLKAPALWVFHVVNAWEVGTKIYIDLMESEILPFPFPNSQNQPFAPEKAVPRLTRWEIDLDSSSDEIKRTRLHDFFAEMPIMDFRFALQCNRYGFMGVDDPRKPLAHQQAEKIFAYNSLGIWDNHRGDYDLWYSGEASAAQEPAFVPRSPTAAEGDGYLLTVVGRLDENRSDLVILDTQDIQSGPVATIKLPFRLRAALHGCWVPRP
- Reaction composition at 24 hours (%) 1a [1]: 97%
- Reaction composition at 24 hours (%) 2a [1]: 2≤ %
- Reaction composition at 24 hours (%) 3a [1]: 1≤ %
- Reaction composition at 24 hours (%) 5a [1]: 1≤ %
- Conversion of 1a to 3a (%) [1]: 1≤ %
- Reaction composition at 24 hours (%) 1a [2]: 97%
- Reaction composition at 24 hours (%) 2a [2]: 2≤ %
- Reaction composition at 24 hours (%) 3a [2]: 1≤ %
- Reaction composition at 24 hours (%) 5a [2]: 1≤ %
- Conversion of 1a to 3a (%) [2]: 1≤ %
- Reaction composition at 24 hours (%) 1a [3]: 2%
- Reaction composition at 24 hours (%) 2a [3]: 3%
- Reaction composition at 24 hours (%) 3a [3]: 53%
- Reaction composition at 24 hours (%) 5a [3]: 1≤ %
- Conversion of 1a to 3a (%) [3]: 45%
- Reaction composition at 24 hours (%) 1a [4]: 1%
- Reaction composition at 24 hours (%) 2a [4]: 5%
- Reaction composition at 24 hours (%) 3a [4]: 45%
- Reaction composition at 24 hours (%) 5a [4]: 1≤ %
- Conversion of 1a to 3a (%) [4]: 40%
- Reaction composition at 24 hours (%) 1a [5]: 2%
- Reaction composition at 24 hours (%) 2a [5]: 4%
- Reaction composition at 24 hours (%) 3a [5]: 49%
- Reaction composition at 24 hours (%) 5a [5]: 1%
- Conversion of 1a to 3a (%) [5]: 44%
- Reaction composition at 24 hours (%) 1a [6]: 3%
- Reaction composition at 24 hours (%) 2a [6]: 3%
- Reaction composition at 24 hours (%) 3a [6]: 59%
- Reaction composition at 24 hours (%) 5a [6]: 1%
- Conversion of 1a to 3a (%) [6]: 50%
- Reaction composition at 24 hours (%) 1a [7]: 2%
- Reaction composition at 24 hours (%) 2a [7]: 4%
- Reaction composition at 24 hours (%) 3a [7]: 48%
- Reaction composition at 24 hours (%) 5a [7]: 2%
- Conversion of 1a to 3a (%) [7]: 40%
- Reaction composition at 24 hours (%) 1a [8]: 1%
- Reaction composition at 24 hours (%) 2a [8]: 4%
- Reaction composition at 24 hours (%) 3a [8]: 52%
- Reaction composition at 24 hours (%) 5a [8]: 2%
- Conversion of 1a to 3a (%) [8]: 44%
- Reaction composition at 24 hours (%) 1a [9]: 3%
- Reaction composition at 24 hours (%) 2a [9]: 5%
- Reaction composition at 24 hours (%) 3a [9]: 44%
- Reaction composition at 24 hours (%) 5a [9]: 3%
- Conversion of 1a to 3a (%) [9]: 41%
- Reaction composition at 24 hours (%) 1a [10]: 3%
- Reaction composition at 24 hours (%) 2a [10]: 4%
- Reaction composition at 24 hours (%) 3a [10]: 50%
- Reaction composition at 24 hours (%) 5a [10]: 2%
- Conversion of 1a to 3a (%) [10]: 49%
- Reaction composition at 24 hours (%) 1a [11]: 1≤ %
- Reaction composition at 24 hours (%) 2a [11]: 27%
- Reaction composition at 24 hours (%) 3a [11]: 9%
- Reaction composition at 24 hours (%) 5a [11]: 6%
- Conversion of 1a to 3a (%) [11]: 8%
- Reaction composition at 24 hours (%) 1a [12]: 1≤ %
- Reaction composition at 24 hours (%) 2a [12]: 18%
- Reaction composition at 24 hours (%) 3a [12]: 15%
- Reaction composition at 24 hours (%) 5a [12]: 5%
- Conversion of 1a to 3a (%) [12]: 13%
- Reaction composition at 24 hours (%) 1a [13]: 3%
- Reaction composition at 24 hours (%) 2a [13]: 49%
- Reaction composition at 24 hours (%) 3a [13]: 44 ^ %
- Reaction composition at 24 hours (%) 5a [13]: 4%
- Conversion of 1a to 3a (%) [13]: 42 ^ %
- Reaction composition at 24 hours (%) 1a [14]: 4%
- Reaction composition at 24 hours (%) 2a [14]: 5%
- Reaction composition at 24 hours (%) 3a [14]: 86 ^ %
- Reaction composition at 24 hours (%) 5a [14]: 5%
- Conversion of 1a to 3a (%) [14]: 48 ^ %
- Reaction composition after 24 hours 1a (%) [15]: 51%
- Reaction composition after 24 hours 2a (%) [15]: 52%
- Reaction composition after 24 hours 3a (%) [15]: 36%
- Reaction composition after 24 hours 5a (%) [15]: 12%
- Reaction composition after 24 hours 1a (%) [16]: ≤1%
- Reaction composition after 24 hours 2a (%) [16]: 24%
- Reaction composition after 24 hours 3a (%) [16]: 59%
- Reaction composition after 24 hours 5a (%) [16]: 18%
- Product distribution after 24 hours 2a (%) [15]: 67.8%
- Product distribution after 24 hours 3a (%) [15]: 17.6%
- Product distribution after 24 hours 5a (%) [15]: 14.6%
- Product distribution after 24 hours 2a (%) [16]: 49.4%
- Product distribution after 24 hours 3a (%) [16]: 30.7%
- Product distribution after 24 hours 5a (%) [16]: 19.9%
- Conversion of 1a to 3a (%) [17]: 31 ± 2%
- Reaction composition at 24 hours (%) 1a [17]: 1≤ %
- Reaction composition at 24 hours (%) 2a [17]: 51 ± 2%
- Reaction composition at 24 hours (%) 3a [17]: 34 ± 2%
- Reaction composition at 24 hours (%) 5a [17]: 15 ± 3%
- Conversion of 1a to 3a (%) [18]: 52 ± 3%
- Reaction composition at 24 hours (%) 1a [18]: 1≤ %
- Reaction composition at 24 hours (%) 2a [18]: 22 ± 2%
- Reaction composition at 24 hours (%) 3a [18]: 59 ± 1%
- Reaction composition at 24 hours (%) 5a [18]: 18 ± 1%
- overall conversion of 1a to vanillin 3a in the 2-step cascade (with EUGO, 5 mM substrate concentration): 50%
